Experiment [1] addresses T1, factor VIIIa (human, UniProt P00451 20-2351).
T1 sequence (looked up): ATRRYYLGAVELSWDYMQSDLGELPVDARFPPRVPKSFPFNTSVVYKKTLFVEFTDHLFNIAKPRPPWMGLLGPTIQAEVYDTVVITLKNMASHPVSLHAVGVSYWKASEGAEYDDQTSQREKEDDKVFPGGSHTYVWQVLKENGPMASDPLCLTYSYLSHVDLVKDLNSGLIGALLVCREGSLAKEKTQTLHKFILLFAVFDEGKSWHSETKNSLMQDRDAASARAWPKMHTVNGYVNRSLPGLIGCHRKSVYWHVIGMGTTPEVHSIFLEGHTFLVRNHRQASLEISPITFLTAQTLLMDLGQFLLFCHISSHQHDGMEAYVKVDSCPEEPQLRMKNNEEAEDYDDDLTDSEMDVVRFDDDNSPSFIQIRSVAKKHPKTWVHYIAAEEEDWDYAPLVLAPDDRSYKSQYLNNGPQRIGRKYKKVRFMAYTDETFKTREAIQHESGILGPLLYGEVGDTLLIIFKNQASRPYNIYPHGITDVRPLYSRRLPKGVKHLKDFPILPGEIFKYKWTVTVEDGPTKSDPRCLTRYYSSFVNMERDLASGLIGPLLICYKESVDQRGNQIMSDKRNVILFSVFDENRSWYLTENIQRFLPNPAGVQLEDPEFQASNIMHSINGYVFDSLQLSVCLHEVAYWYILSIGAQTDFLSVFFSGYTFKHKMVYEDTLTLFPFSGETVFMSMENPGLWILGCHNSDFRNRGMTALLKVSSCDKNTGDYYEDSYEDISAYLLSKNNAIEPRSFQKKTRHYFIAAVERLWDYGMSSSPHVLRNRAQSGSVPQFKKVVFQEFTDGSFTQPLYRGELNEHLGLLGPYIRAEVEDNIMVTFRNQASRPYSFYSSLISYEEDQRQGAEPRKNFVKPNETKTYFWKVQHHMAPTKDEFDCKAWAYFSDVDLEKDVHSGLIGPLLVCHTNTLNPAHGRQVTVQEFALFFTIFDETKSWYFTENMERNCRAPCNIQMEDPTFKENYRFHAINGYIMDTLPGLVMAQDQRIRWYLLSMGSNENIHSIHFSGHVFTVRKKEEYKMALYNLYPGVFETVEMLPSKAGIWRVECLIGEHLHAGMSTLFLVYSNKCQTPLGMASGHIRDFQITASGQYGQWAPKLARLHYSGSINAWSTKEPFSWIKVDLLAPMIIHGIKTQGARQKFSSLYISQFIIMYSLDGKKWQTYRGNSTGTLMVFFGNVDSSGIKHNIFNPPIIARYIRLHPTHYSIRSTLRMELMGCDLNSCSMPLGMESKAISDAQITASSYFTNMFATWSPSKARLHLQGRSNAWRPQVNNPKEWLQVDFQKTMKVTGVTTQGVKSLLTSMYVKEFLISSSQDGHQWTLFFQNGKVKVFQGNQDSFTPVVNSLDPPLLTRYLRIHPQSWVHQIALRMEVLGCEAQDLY
As to the kind of experiment: Kd from the peptide competition assay (factor X activation by IXa with VIIIa and phospholipid).

Experiment [2] concerns the target T1, factor VIIIa. As to the kind of experiment: peptide competition assay: inhibition of factor X activation by IXa with VIIIa and phospholipid. How it is done: Each reaction was incubated for either 30, 60, 90, or 120 seconds and the reaction was stopped by adding 1.5 μL of 0.5 M EDTA and placed on ice. Forty μL of each reaction was added to 100 μL of TBS/BSA in a 96 well microtiter plate and S-2222 (Bz-Ile-Glu(γ-OR)-Gly-Arg-p-nitroanilide) was added to a final concentration of 100 μM.

This passage reports Kd and IC50 results from patent US20040110688A1 (SAINT LOUIS UNIVERSITY, published 2004).

B1: P-4488 SEQ ID NO: 2 (DRAT) (peptide)
peptide: DRAT
Take B1: binding in the experiment with factor VIIIa [1] was put at a Kd of 44.9 µM. This molecule registered a half-inhibitory concentration (IC50) in the experiment with factor VIIIa [2] of 89.8 µM.

B2: EGF1 Domain (other, UniProt P00740 93-131, looked up)
chain: DGDQCESNPCLNGGSCKDDINSYECWCPFGFEGKNCELD
notes: domain: EGF1 Domain
In turn, B2 came in with an equilibrium dissociation constant (Kd) with factor VIIIa [1] of 6 µM. Moreover, the IC50 in the experiment with factor VIIIa [2] was 12 µM.

B3: P-4354 (TKVSRYVN) (peptide)
peptide: TKVSRYVN
Regarding B3, the equilibrium dissociation constant (Kd) in the experiment with factor VIIIa [1] was 1 µM.

B4: P-4351 SEQ ID NO: 6 (LVDRAT) (peptide)
peptide: LVDRAT
In the experiment with factor VIIIa [1], B4 registered a dissociation constant Kd of 0.35 µM. Besides, the half-inhibitory concentration (IC50) with factor VIIIa [2] came out at 0.7 µM.

B5: P-4353 SEQ ID NO: 8 (LVDQAT) (peptide)
peptide: LVDQAT
Take B5: the dissociation constant (Kd) with factor VIIIa [1] came to 4.7 µM. For the same molecule, the IC50 with factor VIIIa [2] was 9.3 µM.

B6: P-4352 SEQ ID NO: 7 (LVYRAT) (peptide)
peptide: LVYRAT
As to B6, in the experiment with factor VIIIa [1], the affinity, expressed as Kd, was 6.6 µM. This molecule came in with an IC50 in the experiment with factor VIIIa [2] of 13.2 µM.
